Substitutions are numbered along the chain they refer to.
Experiments:
[1] = biological target: human CTLA4 (soluble analyte of the Biacore assays of Reference Example 3-3) (human) (UniProt P16410); assay: SPR Biacore T200, 10 uM ATP
[2] = biological target: human FcγRIIb extracellular domain with C-terminal His-tag (human) (UniProt P31994); assay: SPR; binding amount / that of 04H1656-G1m/04L1610-lam1
[3] = biological target: human FcγRIIb extracellular domain with C-terminal His-tag (human) (UniProt P31994); assay: SPR (Biacore T200), FcγRIIb, amount bound per unit captured antibody

Chain of human FcγRIIb extracellular domain with C-terminal His-tag (human) (P31994 43-217): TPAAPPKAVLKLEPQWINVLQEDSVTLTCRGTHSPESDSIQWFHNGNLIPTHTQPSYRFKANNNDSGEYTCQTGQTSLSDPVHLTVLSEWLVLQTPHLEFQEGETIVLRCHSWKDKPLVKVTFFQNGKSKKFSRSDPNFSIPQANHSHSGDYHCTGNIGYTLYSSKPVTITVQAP

B1: 04H1389-G1m/04L1086-lam1 (antibody, human IgG1, lambda, V domains shown)
VH: EVQLVESGGGLVKPGGSLRLSCAASGFTFSSKTMNWVRQAPGKGLEWVSSISTQSHYIYYAESVKGRFTISRDNAKNSLYLQMNSLRAEDTAVYYCARYGKREDMLWVFDYWGQGTLVTVSS
VL: QSALTQPPSASGSPGQTVTISCDGPSTGVGDYNYVHWYQQHPGKAPKLMIYFTSKKPSGVPDRFSGSKSGNTASLTVSGLQAEDEADYFCQTYAAPLGPMFGGGTKLTVLG
For B1, the fold enhanced binding vs parent 04H1207-G1m/04L1086-lam1 [1] was 10 fold.

B2: 04H1382-G1m/04L1086-lam1 (antibody, human IgG1, lambda, V domains shown)
VH: B1 VH with E62R
VL: B1 VL
In the case of B2, the fold enhanced binding vs parent 04H1208-G1m/04L1086-lam1 [1] is reported as 10 fold.

B3: 04H1654-KT462/04L1610-lam1//04H1656-HT441/04L1610-lam1 (antibody, human IgG1, lambda)
heavy 1: QVQLVESGGGVVQPGGSLRLSCAASGFTFSSKTMNWVRQAPGKGLEWVSSISTQSHYIYYARSVRGRFTISRDNAKNSLYLQMNSLRAEDTAVYYCARYGKREDMLWVFDYWGQGTLVTVSSASTKGPSVFPLAPSSKSTSGGTAALGCLVKDYFPEPVTVSWNSGALTSGVHTFPAVLQSSGLYSLSSVVTVPSSSLGTQTYICNVNHKPSNTKVDKRVEPKSCDKTHTCPPCPAPEFQWGPMVFLFPPKPKDVLMISRTPEVTCVVVDVSDEEPEVKFNWYVDGVEVHNAKTKPREEQYNATYRVVSVLPVLHQDWLNGKEYKCKVSNDALPAPIEKTISKAKGQPREPQVYTLPPSRKEMTKNQVSLTCLVKGFYPSDIAVEWESNGQPENNYKTTPPVLDSDGSFFLYSKLTVDKSRWQQGNVFSCSVMHEALHNHYTQKSLSLSP
heavy 2: B3 heavy 1 with R62E, K101A, F239L, Q240L, W241A, M244S, D273H, K339E, K361E, K444E
light: QSALTQPPSASGSPGQSVTISCEGPSTGVGDYNWVHWYQQHPGKAPKLMIYFTSKKPSGVPDRFSGSKSGNTASLTVSGLQAEDEADYYCQTYAAPLGPMFGGGTKLTVLGQPKAAPSVTLFPPSSEELQANKATLVCLISDFYPGAVTVAWKADSSPVKAGVETTTPSKQSNNKYAASSYLSLTPEQWKSHRSYSCQVTHEGSTVEKTVAPTECS
B3 showed a Relative binding amount [2] of 1.7 and a Binding amount [3] of 0.014.

B4: 04H1654-KT473/04L1610-lam1//04H1656-HT451/04L1610-lam1 (antibody)
heavy 1: B3 heavy 1 with N439A, Y441T, Q443R, S445E
heavy 2: QVQLVESGGGVVQPGGSLRLSCAASGFTFSSKTMNWVRQAPGKGLEWVSSISTQSHYIYYAESVRGRFTISRDNAKNSLYLQMNSLRAEDTAVYYCARYGAREDMLWVFDYWGQGTLVTVSSASTKGPSVFPLAPSSKSTSGGTAALGCLVKDYFPEPVTVSWNSGALTSGVHTFPAVLQSSGLYSLSSVVTVPSSSLGTQTYICNVNHKPSNTKVDKRVEPKSCDKTHTCPPCPAPELLAGPSVFLFPPKPKDVLMISRTPEVTCVVVDVSHEEPEVKFNWYVDGVEVHNAKTKPREEQYNATYRVVSVLPVLHQDWLNGKEYKCKVSNDALPAPIEETISKAKGQPREPQVYTLPPSREEMTKNQVSLTCLVKGFYPSDIAVEWESNGQPENNYKTTPPVLDSDGSFFLYSKLTVDKSRWQQGNVFSCSVMHEALHAHTTREELSLSP
light: B3 light
B4 gave a Relative binding amount [2] of 1.5 and a Binding amount [3] of 0.012.

— patent EP4361176A1
